Data: patent publication US20090252741A1

Target: human CTLA-4Ig fusion protein (extracellular domain of human CTLA-4 and the Fc fragment of human IgG1) (human) (UniProt P16410)
Experiment: Biacore SPR, huCTLA-4Ig immobilized by amine coupling, mAb injected, 25 C

Sequence of UniProt P16410 (P16410 36-161): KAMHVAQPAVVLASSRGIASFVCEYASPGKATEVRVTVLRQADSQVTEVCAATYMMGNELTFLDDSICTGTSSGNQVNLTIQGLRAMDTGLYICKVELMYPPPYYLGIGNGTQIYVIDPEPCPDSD

B1: anti-human CTLA-4 mAb clone L3D10 (antibody, from another filing, V domains shown)
VH: QVQLKESGPGLVAPSQSLSITCTVSGFSLTSYGLSWVRQPPGKGLEWLGVIWYDGNTNFHSALISRLTISKDNSKSQVFLELNSLQTDDTATYYCAKTEGHYYGSNYGYYALDYWGQGTSVTVSS
VL: DIQMTQSPASLSVSVGETVTITCRASENIYSNLAWYQQKQGKSPQLLVYAATNLADGVPSRFSGSGSGTQYSLKINSLQSEDFGTYFCQHLWGTPYTFGGGTKLEIKR
Kd: 3.06 nM | koff: 0.000633 s⁻¹ | kon: 207000 M⁻¹ s⁻¹
